{
  "source": "patent US6967029",
  "about": "(Amgen, dated 2005)",
  "molecular_target": "T1, human SCF receptor, native, on cell membranes (human, UniProt P10721 26-976)",
  "T1 construct": "whole, on cells; also called human SCF receptors on OCIM1 cells (isolated OCIM1 plasma membrane); SCF receptors on leukemic blasts",
  "assay": "radioreceptor assay: competition with 125I-huSCF on OCIM1 plasma membrane",
  "procedure": "The SCF radioreceptor assay was conducted as follows with all steps being performed on ice. […] A dilution of isolated OCIM1 plasma membrane in 50 ul buffer known to give 20% specific binding was then added to each tube. Tubes were vortexed and allowed to incubate for 24 hrs at 4° C. […] All tubes were oriented with lid opening tabs straight up. Supernatants were carefully aspirated by a sliding a 21 gauge needle down the side opposite the pellet (hinge side of tube) to bottom of each tube. Tubes were counted in gamma counter for 1 min. each.",
  "data": [
    {"binder": "E. coli derived human SCF^1-130 analog (ligand, Plasmid encodes an initiating methionine before residue 1; Dimeric in solution by gel filtration) EGICRNRVTNNVKDVTKLVANLPKDYMITLKYVPGMDVLPSHCWISEMVVQLSDSLTDLLDKFSNISEGLSNYSIIDKLVNIVDDLVECVKENSSKDLKKSFKSPEPRLFTPEEFFRIFNRSIDAFKDFV", "values": [
      {"measurement": "specific activity in the radioreceptor assay relative to SCF^1-164", "result": "~50 % of the value for SCF^1-164"}
    ]}
  ]
}
